From the supplement of paper PMC10126150
± gives the standard deviation of the averaged measurements.

System: ATP
Assay: switch fluorescence ratio, 500 uM ATP over buffer (Cy3 cluster intensity, sum of 5 cycles each) (fold (ratio)); higher = stronger signal-on switching upon ATP binding; sequences stand for … in TCGTCGGCAGCGTCAGATGTGTATAAGAGACAGTTTTTTTTTTTTTTTTTTTTTTTTT…TC
Conditions: aptamer strand: ATP DNA aptamer (quencher-CACCTGGGGGAGTATTGCGGAGGAAGG + anchor), 100 nM annealed; ATP concentration: 500 uM
In short: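 Between each of five buffer/ATP cycles, the flow-cell was stripped with NaOH and re-annealed. Each cycle imaged Cy3-labelled switching-strand clusters, annealed to 100 nM quencher-labelled ATP aptamer on a modified Illumina MiSeq flow-cell, first in selection buffer and then after 15 min with 500 uM ATP at 22 °C. The fluorescence ratio is summed target-cycle over summed buffer-cycle Cy3 intensity per cluster, averaged per switch-domain sequence, with clusters outside 100-1000 RFU excluded.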
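Further: ATP exposure 15 min at 22 °C before imaging.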

TATCGGATGG
switch fluorescence ratio: 1.0207 ± 0.00094

TATCGGGGTG
switch fluorescence ratio: 0.996 ± 0.053

TATCGGGGTT
switch fluorescence ratio: 0.98 ± 0.046

TATCGGGTGG
switch fluorescence ratio: 1.01 ± 0.097

TATCGGTATT
switch fluorescence ratio: 1 ± 0.039

TATCGGTCCG
switch fluorescence ratio: 1.01 ± 0.024

TATCTATCAT
switch fluorescence ratio: 0.969 ± 0.024

TATCTATTTT
switch fluorescence ratio: 0.964 ± 0.011

TATCTCCAAT
switch fluorescence ratio: 1.12 ± 0.052

TATCTCGGGA
switch fluorescence ratio: 0.988 ± 0.02

TATCTGAACG
switch fluorescence ratio: 1.01 ± 0.037

TATCTGCTAC
switch fluorescence ratio: 3.67 ± 0.7

TATCTGGGTG
switch fluorescence ratio: 1.06 ± 0.029

TATCTGGGTT
switch fluorescence ratio: 1.06 ± 0.079

TATCTTTTCT
switch fluorescence ratio: 0.968 ± 0.014

TATGAAACCG
switch fluorescence ratio: 1.02 ± 0.086

TATGACGCGG
switch fluorescence ratio: 0.9833 ± 0.0053

TATGAGAGCC
switch fluorescence ratio: 1.02 ± 0.026

TATGAGGGCA
switch fluorescence ratio: 1.02 ± 0.013

TATGAGGGCG
switch fluorescence ratio: 1.04 ± 0.041

TATGAGGGGC
switch fluorescence ratio: 0.967 ± 0.013

TATGAGGTCT
switch fluorescence ratio: 1.02 ± 0.032

TATGATAGCC
switch fluorescence ratio: 1.04 ± 0.037

TATGATAGGT
switch fluorescence ratio: 0.9914 ± 0.0013

TATGATGGGC
switch fluorescence ratio: 0.9577 ± 0.0057

TATGATTACG
switch fluorescence ratio: 1.03 ± 0.013

TATGATTTGC
switch fluorescence ratio: 1 ± 0.012

TATGCACTGA
switch fluorescence ratio: 1.06 ± 0.024

TATGCATTGT
switch fluorescence ratio: 1.01 ± 0.017

TATGCATTTC
switch fluorescence ratio: 1.08 ± 0.0049

TATGCGAGAC
switch fluorescence ratio: 2.3 ± 0.15

TATGCGTTTT
switch fluorescence ratio: 0.98 ± 0.013

TATGCTTATT
switch fluorescence ratio: 1 ± 0.024

TATGCTTTGG
switch fluorescence ratio: 0.98 ± 0.03

TATGGAGTGG
switch fluorescence ratio: 1 ± 0.039

TATGGATGGC
switch fluorescence ratio: 1.01 ± 0.058

TATGGATTAT
switch fluorescence ratio: 1.02 ± 0.081

TATGGCCTGG
switch fluorescence ratio: 1.04 ± 0.015

TATGGGAGGG
switch fluorescence ratio: 0.952 ± 0.022

TATGGGAGGT
switch fluorescence ratio: 1.04 ± 0.029

TATGGGCAGC
switch fluorescence ratio: 1.03 ± 0.018

TATGGGCATT
switch fluorescence ratio: 0.998 ± 0.016

TATGGGCGCG
switch fluorescence ratio: 1.11 ± 0.23

TATGGGGTTT
switch fluorescence ratio: 1.01 ± 0.031

TATGGGTGAT
switch fluorescence ratio: 1.01 ± 0.034

TATGGGTGTG
switch fluorescence ratio: 1.02 ± 0.037

TATGGGTTTT
switch fluorescence ratio: 1.02 ± 0.037

TATGGTGAGC
switch fluorescence ratio: 1.01 ± 0.023

TATGGTTAAT
switch fluorescence ratio: 0.982 ± 0.016

TATGTAAGGA
switch fluorescence ratio: 0.985 ± 0.041

TATGTAATGT
switch fluorescence ratio: 0.993 ± 0.031

TATGTACACA
switch fluorescence ratio: 1.02 ± 0.059

TATGTACGGG
switch fluorescence ratio: 1.0612 ± 0.00037

TATGTACTAG
switch fluorescence ratio: 1.049 ± 0.0089

TATGTAGATT
switch fluorescence ratio: 1.017 ± 0.01

TATGTAGTAG
switch fluorescence ratio: 0.971 ± 0.042

TATGTAGTCG
switch fluorescence ratio: 1.02 ± 0.038

TATGTATATA
switch fluorescence ratio: 1.01 ± 0.079

TATGTATCTA
switch fluorescence ratio: 1.02 ± 0.043

TATGTATTAT
switch fluorescence ratio: 0.994 ± 0.062

TATGTCATGT
switch fluorescence ratio: 1.02 ± 0.011

TATGTCATTT
switch fluorescence ratio: 0.957 ± 0.011

TATGTCCAGT
switch fluorescence ratio: 1.0009 ± 0.00027

TATGTCTCTT
switch fluorescence ratio: 1.02 ± 0.021

TATGTCTTTA
switch fluorescence ratio: 1 ± 0.017

TATGTGAGCA
switch fluorescence ratio: 0.99 ± 0.014

TATGTGGCT
switch fluorescence ratio: 1.017 ± 0.0043

TATGTGGGAA
switch fluorescence ratio: 1.01 ± 0.062

TATGTGGTTG
switch fluorescence ratio: 0.99 ± 0.016

TATGTGTCAG
switch fluorescence ratio: 0.977 ± 0.012

TATGTGTGAT
switch fluorescence ratio: 0.996 ± 0.013

TATGTGTGGG
switch fluorescence ratio: 1.01 ± 0.026

TATGTGTTGG
switch fluorescence ratio: 0.992 ± 0.025

TATGTTAGAT
switch fluorescence ratio: 1.002 ± 0.01

TATGTTAGTC
switch fluorescence ratio: 0.988 ± 0.054

TATGTTGCAA
switch fluorescence ratio: 1.01 ± 0.025

TATGTTGGAT
switch fluorescence ratio: 0.988 ± 0.012

TATGTTTATT
switch fluorescence ratio: 1.03 ± 0.011

TATGTTTCCT
switch fluorescence ratio: 1.02 ± 0.037

TATGTTTCGT
switch fluorescence ratio: 1.01 ± 0.041

TATGTTTGAA
switch fluorescence ratio: 0.984 ± 0.015

TATTAACCTT
switch fluorescence ratio: 1.6415 ± 0.00013

TATTAAGCAG
switch fluorescence ratio: 1.07 ± 0.038

TATTAAGTAT
switch fluorescence ratio: 1.01 ± 0.019

TATTAATGTG
switch fluorescence ratio: 0.974 ± 0.042

TATTACACAT
switch fluorescence ratio: 1.01 ± 0.04

TATTAGAGGT
switch fluorescence ratio: 0.997 ± 0.019

TATTAGATTC
switch fluorescence ratio: 0.9656 ± 0.0023

TATTAGGCAT
switch fluorescence ratio: 1.15 ± 0.23

TATTAGGCGC
switch fluorescence ratio: 0.982 ± 0.022

TATTAGGGGA
switch fluorescence ratio: 1.02 ± 0.013

TATTAGTCAG
switch fluorescence ratio: 1 ± 0.023

TATTATCTGC
switch fluorescence ratio: 0.971 ± 0.021

TATTATGACC
switch fluorescence ratio: 1.01 ± 0.043

TATTATGATC
switch fluorescence ratio: 1.03 ± 0.02

TATTATGGCA
switch fluorescence ratio: 1.02 ± 0.08

TATTATTGGT
switch fluorescence ratio: 0.992 ± 0.045

TATTATTTGT
switch fluorescence ratio: 0.994 ± 0.053

TATTATTTTG
switch fluorescence ratio: 1 ± 0.049

TATTCAACGG
switch fluorescence ratio: 1.02 ± 0.028

TATTCAAGTT
switch fluorescence ratio: 1 ± 0.024

TATTCAGGGG
switch fluorescence ratio: 1.03 ± 0.058

TATTCAGTGC
switch fluorescence ratio: 1.01 ± 0.046

TATTCATGTT
switch fluorescence ratio: 0.991 ± 0.029

TATTCCGCC
switch fluorescence ratio: 2.29 ± 0.033

TATTCGGGAG
switch fluorescence ratio: 1.0052 ± 0.00035

TATTCTCATT
switch fluorescence ratio: 0.977 ± 0.023

TATTGACGGG
switch fluorescence ratio: 0.9956 ± 0.0023

TATTGAGCGT
switch fluorescence ratio: 1 ± 0.044

TATTGAGGGG
switch fluorescence ratio: 1 ± 0.038

TATTGATAGC
switch fluorescence ratio: 1.014 ± 0.0083

TATTGCGGCA
switch fluorescence ratio: 1.011 ± 0.0051

TATTGCTTCT
switch fluorescence ratio: 0.9913 ± 0.0021

TATTGGGCCT
switch fluorescence ratio: 1 ± 0.051

TATTGGGGGA
switch fluorescence ratio: 0.995 ± 0.043

TATTGGGTCG
switch fluorescence ratio: 0.99 ± 0.023

TATTGGTTGT
switch fluorescence ratio: 0.999 ± 0.029

TATTGTCTTT
switch fluorescence ratio: 1.02 ± 0.025

TATTGTGACT
switch fluorescence ratio: 1.021 ± 0.01

TATTGTGGCT
switch fluorescence ratio: 0.9785 ± 0.0061

TATTGTGTAA
switch fluorescence ratio: 1 ± 0.023

TATTGTTCTG
switch fluorescence ratio: 0.9819 ± 0.0025

TATTGTTGTT
switch fluorescence ratio: 0.9949 ± 0.0063

TATTTAAAAG
switch fluorescence ratio: 1.003 ± 0.009

TATTTAAGGG
switch fluorescence ratio: 1.12 ± 0.16

TATTTAATCA
switch fluorescence ratio: 1.008 ± 0.0097

TATTTACAGG
switch fluorescence ratio: 1.033 ± 0.0084

TATTTAGGAC
switch fluorescence ratio: 0.99 ± 0.028

TATTTATATT
switch fluorescence ratio: 1.06 ± 0.029

TATTTATCGG
switch fluorescence ratio: 0.991 ± 0.013

TATTTATGTA
switch fluorescence ratio: 1.01 ± 0.045

TATTTCCTGT
switch fluorescence ratio: 0.993 ± 0.011

TATTTCGTGG
switch fluorescence ratio: 0.985 ± 0.024

TATTTGAAA
switch fluorescence ratio: 1.05 ± 0.059

TATTTGCGCA
switch fluorescence ratio: 1.06 ± 0.099

TATTTGCTTT
switch fluorescence ratio: 1.02 ± 0.015

TATTTGGGGA
switch fluorescence ratio: 0.999 ± 0.024

TATTTGGTCG
switch fluorescence ratio: 1.02 ± 0.047

TATTTGTATG
switch fluorescence ratio: 0.9919 ± 0.003

TATTTGTGCT
switch fluorescence ratio: 0.982 ± 0.011

TATTTTACCA
switch fluorescence ratio: 1.017 ± 0.0061

TATTTTCCTG
switch fluorescence ratio: 1.15 ± 0.18

TATTTTCGGT
switch fluorescence ratio: 0.986 ± 0.021

TATTTTCTCA
switch fluorescence ratio: 1.05 ± 0.049

TATTTTCTTT
switch fluorescence ratio: 0.982 ± 0.021

TATTTTGGGC
switch fluorescence ratio: 0.997 ± 0.046

TATTTTGGTG
switch fluorescence ratio: 0.984 ± 0.033

TATTTTTATA
switch fluorescence ratio: 0.992 ± 0.017

TATTTTTATC
switch fluorescence ratio: 1.03 ± 0.018

TATTTTTGCC
switch fluorescence ratio: 1.001 ± 0.0031

TCAAAAAGGA
switch fluorescence ratio: 1.01 ± 0.031

TCAAAACGGT
switch fluorescence ratio: 1.34 ± 0.51

TCAAAACTGT
switch fluorescence ratio: 1.07 ± 0.067

TCAAAAGGGA
switch fluorescence ratio: 1.02 ± 0.041

TCAAACTGGT
switch fluorescence ratio: 1.03 ± 0.028

TCAAACTTAT
switch fluorescence ratio: 1.05 ± 0.027

TCAAAGAAC
switch fluorescence ratio: 1.0338 ± 0.00026

TCAAAGGTTC
switch fluorescence ratio: 1.13 ± 0.16

TCAAAGTTGG
switch fluorescence ratio: 1.01 ± 0.022

TCAACCAAAA
switch fluorescence ratio: 1.02 ± 0.011

TCAACGTAGA
switch fluorescence ratio: 1.03 ± 0.014

TCAACGTGCT
switch fluorescence ratio: 1 ± 0.037

TCAACTGGTG
switch fluorescence ratio: 1.35 ± 0.16

TCAACTTTTT
switch fluorescence ratio: 1.01 ± 0.02

TCAAGACGCA
switch fluorescence ratio: 1.068 ± 0.0035

TCAAGAGGTT
switch fluorescence ratio: 1.001 ± 0.01

TCAAGCCATT
switch fluorescence ratio: 0.989 ± 0.022

TCAAGGAGTT
switch fluorescence ratio: 0.9773 ± 0.0047

TCAAGGCGGA
switch fluorescence ratio: 0.99 ± 0.012

TCAATATTGG
switch fluorescence ratio: 1.008 ± 0.0098

TCAATCCTTG
switch fluorescence ratio: 0.999 ± 0.035

TCAATGCATG
switch fluorescence ratio: 0.983 ± 0.035

TCAATGGTTT
switch fluorescence ratio: 1.12 ± 0.21

TCAATTGGGA
switch fluorescence ratio: 0.983 ± 0.055

TCAATTTGGC
switch fluorescence ratio: 1.02 ± 0.039

TCAATTTGGG
switch fluorescence ratio: 0.971 ± 0.022

TCACAATGCG
switch fluorescence ratio: 1.06 ± 0.064

TCACAGCCG
switch fluorescence ratio: 1.046 ± 0.0085

TCACAGTAAT
switch fluorescence ratio: 1.13 ± 0.063

TCACAGTTAG
switch fluorescence ratio: 0.998 ± 0.046

TCACCAGGTA
switch fluorescence ratio: 2.163 ± 0.021

TCACCATATT
switch fluorescence ratio: 1.05 ± 0.02

TCACGCTTCA
switch fluorescence ratio: 1.12 ± 0.033

TCACGCTTTT
switch fluorescence ratio: 1.11 ± 0.12

TCACGTTCAA
switch fluorescence ratio: 1.06 ± 0.022

TCACGTTTAG
switch fluorescence ratio: 1.03 ± 0.011

TCACTCGAAG
switch fluorescence ratio: 1.01 ± 0.0067

TCAGAATCGT
switch fluorescence ratio: 0.988 ± 0.026

TCAGAATGCG
switch fluorescence ratio: 0.991 ± 0.045

TCAGAATTCA
switch fluorescence ratio: 1.01 ± 0.012

TCAGACTGTT
switch fluorescence ratio: 1.01 ± 0.013

TCAGAGGCGT
switch fluorescence ratio: 0.9964 ± 0.0056

TCAGAGGGCA
switch fluorescence ratio: 1 ± 0.053

TCAGATTGTT
switch fluorescence ratio: 0.9623 ± 0.0028

TCAGATTTGG
switch fluorescence ratio: 0.9901 ± 0.006

TCAGCGGGGG
switch fluorescence ratio: 1.11 ± 0.16

TCAGCGGTTT
switch fluorescence ratio: 0.96 ± 0.055

TCAGGACGGC
switch fluorescence ratio: 0.99 ± 0.044

TCAGGAGTCG
switch fluorescence ratio: 1.02 ± 0.06

TCAGGCTAAC
switch fluorescence ratio: 1.01 ± 0.011
